# From US20230279079A1
# Assays:
# [1] = molecular target: spike glycoprotein of wild type SARS-CoV-2 virus (SARS-CoV-2) (UniProt P0DTC2); assay: cell-based or functional assay
# RBD-VLP (SARS-CoV-2) = RBD-VLP (SARS-CoV-2) (UniProt P0DTC2)
Substance,Neutralization by PRNT EC50 [1] [nM],IC50 (RBD-VLP (SARS-CoV-2)) [nM]
CR3022 (antibody),42,
VHH72-Fc,,2
